The source of these data is paper PMC7277991, “Chemoenzymatic Synthesis and Biological Evaluation for Bioactive Molecules Derived from Bacterial Benzoyl Coenzyme A Ligase and Plant Type III Polyketide Synthase” (Biomolecules, 2020).

Data set [1] addresses T1, benzoate CoA ligase (BadA) (Rhodopseudomonas palustris, UniProt Q6NC13, H333A/I334A, form not given).
T1 construct: recombinant in E. coli BL21 (DE3), Ni-NTA purified
In words: X-ray crystal structure. The data set is classed as binding. The conditions noted are these: acyl-adenylate intermediate in active site; thiolation conformation, no CoA.

Data set [2] has as its target T2, Malonyl-CoA synthetase from Rhizobium triofli (RtMCS) (Rhizobium leguminosarum, UniProt Q9ZIP5).
T2 construct: gene matB; recombinant in E. coli, Ni-NTA purified
T2 sequence (Q9ZIP5 1-504): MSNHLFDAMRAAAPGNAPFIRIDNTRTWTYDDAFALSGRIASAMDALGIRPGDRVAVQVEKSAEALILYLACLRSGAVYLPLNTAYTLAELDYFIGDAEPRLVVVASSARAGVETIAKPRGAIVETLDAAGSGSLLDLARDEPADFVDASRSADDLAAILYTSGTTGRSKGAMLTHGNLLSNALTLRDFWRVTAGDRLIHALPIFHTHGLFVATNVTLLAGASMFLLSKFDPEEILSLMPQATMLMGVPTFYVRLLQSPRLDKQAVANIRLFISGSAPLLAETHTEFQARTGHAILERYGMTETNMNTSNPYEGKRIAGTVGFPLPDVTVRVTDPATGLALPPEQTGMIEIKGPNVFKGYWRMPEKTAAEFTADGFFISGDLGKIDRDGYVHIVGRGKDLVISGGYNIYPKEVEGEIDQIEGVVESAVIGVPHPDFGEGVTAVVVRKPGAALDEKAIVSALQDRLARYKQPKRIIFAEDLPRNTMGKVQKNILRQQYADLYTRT
Briefly: HPLC and LC-ESI-MS of malonyl-CoA. It is filed as biochemical. The conditions noted are these: 5 mM ATP, 2 mM CoA, 5 mM Mg2+, pH 7.5, room temperature; ATP regeneration.

Substrate in data set [3]: CC(C)(COP(=O)(O)OP(=O)(O)OC[C@H]1O[C@@H](n2cnc3c(N)ncnc32)[C@H](O)[C@@H]1OP(=O)(O)O)[C@@H](O)C(=O)NCCC(=O)NCCSC(=O)CCCCCCc1ccccc1
Briefly: HPLC product formation, Michaelis-Menten fit. The following applies: 60 μM malonyl-CoA, 100 mM potassium phosphate pH 7.4, 1 mM EDTA, 30 °C. It is filed as biochemical, Pinus sylvestris. The source says: (§1) HPLC product formation, Michaelis-Menten fit on stilbene synthase (STS) from Pinus sylvestris

Substrate in data set [4]: CC(C)(COP(=O)(O)OP(=O)(O)OC[C@H]1O[C@@H](n2cnc3c(N)ncnc32)[C@H](O)[C@@H]1OP(=O)(O)O)[C@@H](O)C(=O)NCCC(=O)NCCSC(=O)CCCCCc1ccccc1
Briefly: HPLC product formation, Michaelis-Menten fit. It is filed as biochemical, Pinus sylvestris. The conditions noted are these: 60 μM malonyl-CoA, 100 mM potassium phosphate pH 7.4, 1 mM EDTA, 30 °C.
Description: as §1

Substrate in data set [5]: CC(C)(COP(=O)(O)OP(=O)(O)OC[C@H]1O[C@@H](n2cnc3c(N)ncnc32)[C@H](O)[C@@H]1OP(=O)(O)O)[C@@H](O)C(=O)NCCC(=O)NCCSC(=O)CCCCc1ccc(F)cc1
Briefly: HPLC product formation, Michaelis-Menten fit. The data set is classed as biochemical, Pinus sylvestris. The conditions noted are these: 60 μM malonyl-CoA, 100 mM potassium phosphate pH 7.4, 1 mM EDTA, 30 °C.
Description: as §1

Substrate in data set [6]: CC(C)(COP(=O)(O)OP(=O)(O)OC[C@H]1O[C@@H](n2cnc3c(N)ncnc32)[C@H](O)[C@@H]1OP(=O)(O)O)[C@@H](O)C(=O)NCCC(=O)NCCSC(=O)Cc1ccc(-c2ccccc2)cc1
In words: HPLC product formation, Michaelis-Menten fit. The data set is classed as biochemical, Pinus sylvestris. The conditions noted are these: 60 μM malonyl-CoA, 100 mM potassium phosphate pH 7.4, 1 mM EDTA, 30 °C.
Description: as §1

Substrate in data set [7]: CC(C)(COP(=O)(O)OP(=O)(O)OC[C@H]1O[C@@H](n2cnc3c(N)ncnc32)[C@H](O)[C@@H]1OP(=O)(O)O)[C@@H](O)C(=O)NCCC(=O)NCCSC(=O)c1cnc(Cl)s1
Briefly: HPLC product formation, Michaelis-Menten fit. The data set is classed as biochemical, Pinus sylvestris. The following applies: 60 μM malonyl-CoA, 100 mM potassium phosphate pH 7.4, 1 mM EDTA, 30 °C.
Description: as §1

Substrate in data set [8]: Cc1ncc(C(=O)SCCNC(=O)CCNC(=O)[C@H](O)C(C)(C)COP(=O)(O)OP(=O)(O)OC[C@H]2O[C@@H](n3cnc4c(N)ncnc43)[C@H](O)[C@@H]2OP(=O)(O)O)s1
Briefly: HPLC product formation, Michaelis-Menten fit. The following applies: 60 μM malonyl-CoA, 100 mM potassium phosphate pH 7.4, 1 mM EDTA, 30 °C. The data set is classed as biochemical, Pinus sylvestris.
Description: as §1

Substrate in data set [9]: Cc1ncsc1C(=O)SCCNC(=O)CCNC(=O)[C@H](O)C(C)(C)COP(=O)(O)OP(=O)(O)OC[C@H]1O[C@@H](n2cnc3c(N)ncnc32)[C@H](O)[C@@H]1OP(=O)(O)O
Briefly: HPLC product formation, Michaelis-Menten fit. It is filed as biochemical, Pinus sylvestris. The following applies: 60 μM malonyl-CoA, 100 mM potassium phosphate pH 7.4, 1 mM EDTA, 30 °C.
Description: as §1

T1 sequence (Q6NC13 entry or part of it H333A/I334A, form open): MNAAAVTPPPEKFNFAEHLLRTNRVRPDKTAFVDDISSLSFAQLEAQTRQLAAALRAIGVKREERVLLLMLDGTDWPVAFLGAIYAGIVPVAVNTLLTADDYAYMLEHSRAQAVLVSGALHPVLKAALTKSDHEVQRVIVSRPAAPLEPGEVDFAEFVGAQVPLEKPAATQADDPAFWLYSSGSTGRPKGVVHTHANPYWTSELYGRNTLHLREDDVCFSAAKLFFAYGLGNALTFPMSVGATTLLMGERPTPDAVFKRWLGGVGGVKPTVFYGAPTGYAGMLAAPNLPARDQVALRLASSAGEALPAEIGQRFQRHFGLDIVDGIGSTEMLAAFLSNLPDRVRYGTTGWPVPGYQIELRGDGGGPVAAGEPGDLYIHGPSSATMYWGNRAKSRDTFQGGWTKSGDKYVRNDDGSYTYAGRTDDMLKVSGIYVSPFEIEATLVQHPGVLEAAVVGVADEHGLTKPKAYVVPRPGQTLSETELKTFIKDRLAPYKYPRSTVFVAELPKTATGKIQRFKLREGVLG

Turning to `Nc1ncnc2c1ncn2[C@@H]1O[C@H](COP(=O)(O)OC(=O)c2cnc(Cl)s2)[C@@H](O)[C@H]1O` [2-chloro-1,3-thiazole-5-carboxyl-AMP], the X-ray crystal structure entry in data set [1] is “in complex with a 2-chloro-1,3-thiazole-5-carboxyl-AMP (2Cl5C-AMP) (PDB entry 6M2U)”.

Take `O=C(O)CC(=O)O` [malonic acid]: the “HPLC and LC-ESI-MS of malonyl-CoA” value in data set [2] was “Malonyl-CoA was chemo-enzymatically prepared from malonate, CoA, and ATP using RtMCS”.

With `Cc1ncc(C(=O)OP(=O)(O)OC[C@H]2O[C@@H](n3cnc4c(N)ncnc43)[C@H](O)[C@@H]2O)s1` [2-methylthiazole-5-carboxyl-AMP], the X-ray crystal structure in [1] is given as 2-methylthiazole-5-carboxyl-AMP (2M5C-AMP) (PDB entry 6M2T) intermediate were obtained.

B1: stilbene synthase (STS) from Pinus sylvestris (Pinus sylvestris) (protein)
chain: MGGVDFEGFRKLQRADGFASILAIGTANPPNAVDQSTYPDFYFRITGNEHNTELKDKFKRICERSAIKQRYMYLTEEILKKNPDVCAFVEVPSLDARQAMLAMEVPRLAKEAAEKAIQEWGQSKSGITHLIFCSTTTPDLPGADFEVAKLLGLHPSVKRVGVFQHGCFAGGTVLRMAKDLAENNRGARVLVICSETTAVTFRGPSETHLDSLVGQALFGDGASALIVGADPIPQVEKACFEIVWTAQTVVPNSEGAIGGKVREVGLTFQLKGAVPDLISANIENCMVEAFSQFKISDWNKLFWVVHPGGRAILDRVEAKLNLDPTKLIPTRHVMSEYGNMSSACVHFILDQTRKASLQNGCSTTGEGLEMGVLFGFGPGLTIETVVLKSVPIQ
notes: recombinant in E. coli BL21 (DE3), Ni-NTA purified, size-exclusion
Usually Km stands for the substrate concentration at which the rate is half of its maximum. The term kcat denotes the maximal rate divided by the concentration of active sites. For B1, the Km in [3] came to 29.42 µM; in [4] it was 43.89 µM; in [5], 4.15 µM; in [6], 23.24 µM; in data set [7] it was 12.77 µM; in data set [8], 3.87 µM. In addition, the Km in [9] stood at 3.82 µM. The kcat in data set [3] was 0.0045 s⁻¹; in [6] it was 0.0035 s⁻¹; in data set [7], 0.00317 s⁻¹; in data set [8], 0.000167 s⁻¹; in data set [9], 0.00267 s⁻¹.
